Laboratory results from patent publication US20150166647A1 (VLST, published 2015).

T1: human MIP-1α/CCL3 (human, UniProt P10147 24-92)
T1 construct: also called Biotin-MIP-1α
T1 sequence: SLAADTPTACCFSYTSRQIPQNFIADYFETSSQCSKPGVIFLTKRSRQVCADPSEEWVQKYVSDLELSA

T2: BCA1
T2 construct: also called BCA-1/BLC/CXCL13; CXCL13
T2 chemokine: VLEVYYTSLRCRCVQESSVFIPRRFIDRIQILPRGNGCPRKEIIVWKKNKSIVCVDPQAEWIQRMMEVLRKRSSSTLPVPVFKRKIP

T3: NAP-2
T3 construct: also called NAP-2/CXCL7; CXCL7
T3 chemokine: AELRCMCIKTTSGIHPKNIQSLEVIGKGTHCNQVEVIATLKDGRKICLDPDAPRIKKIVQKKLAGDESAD

T4: I-TAC
T4 construct: also called I-TAC/CXCL11; CXCL11
T4 chemokine: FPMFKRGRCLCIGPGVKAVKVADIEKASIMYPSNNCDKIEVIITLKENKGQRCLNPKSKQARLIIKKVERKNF

T5: BRAK
T5 construct: also called BRAK/CXCL14; CXCL14
T5 chemokine: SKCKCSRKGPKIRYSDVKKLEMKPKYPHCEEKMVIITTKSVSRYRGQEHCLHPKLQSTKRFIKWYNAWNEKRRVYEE

T6: XCL1
T6 chemokine: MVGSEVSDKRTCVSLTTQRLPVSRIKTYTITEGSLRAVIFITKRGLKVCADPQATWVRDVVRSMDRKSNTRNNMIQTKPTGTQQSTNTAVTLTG

T7: PF4
T7 construct: also called PF4/CXCL4; CXCL4
T7 chemokine: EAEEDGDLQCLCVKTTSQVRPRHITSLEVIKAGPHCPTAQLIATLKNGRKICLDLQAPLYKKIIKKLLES

T8: CTACK
T8 construct: also called CTACK/CCL27; CCL27
T8 chemokine: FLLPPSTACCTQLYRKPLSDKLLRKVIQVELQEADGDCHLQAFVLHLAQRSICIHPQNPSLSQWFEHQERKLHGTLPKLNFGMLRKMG


Key:
human MIP-1α/CCL3 = target: T1, human MIP-1α/CCL3; assay: ELISA, hybridoma fusion-well supernatant on coated MIP-1α; background approx. 0.150
BCA1 = target: T2, BCA1; assay: MSD electrochemiluminescence assay; chemokine coated at 1 µg/mL, 18V4F at 3 µg/mL; background = BSA
Groα = target: T9, Groα; assay: as above
T9 construct: also called Gro-α/CXCL1; CXCL1
T9 sequence (chemokine, as listed by the source): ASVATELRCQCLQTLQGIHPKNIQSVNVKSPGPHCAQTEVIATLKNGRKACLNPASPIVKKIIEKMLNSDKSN

NAP-2 = target: T3, NAP-2; assay: as above
IL-8 = target: T10, IL-8; assay: as above
T10 construct: also called IL-8/CXCL8; CXCL8
T10 sequence (chemokine, as listed by the source): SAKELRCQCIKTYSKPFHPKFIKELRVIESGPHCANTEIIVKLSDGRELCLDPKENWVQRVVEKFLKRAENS

Groγ = target: T11, Groγ; assay: as above
T11 construct: also called Gro-γ/CXCL3; CXCL3
T11 sequence (chemokine, as listed by the source): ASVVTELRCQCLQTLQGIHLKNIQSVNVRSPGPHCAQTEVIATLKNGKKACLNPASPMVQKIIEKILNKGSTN

I-TAC = target: T4, I-TAC; assay: as above
BRAK = target: T5, BRAK; assay: as above
ENA-78 = target: T12, ENA-78; assay: as above
T12 construct: also called ENA-78/CXCL5; CXCL5
T12 sequence (chemokine, as listed by the source): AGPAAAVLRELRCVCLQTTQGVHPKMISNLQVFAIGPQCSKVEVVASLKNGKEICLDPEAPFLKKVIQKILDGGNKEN

XCL1 = target: T6, XCL1; assay: as above
SDF = target: T13, SDF; assay: as above
T13 construct: also called SDF-1/CXCL12; CXCL12
T13 sequence (chemokine, as listed by the source): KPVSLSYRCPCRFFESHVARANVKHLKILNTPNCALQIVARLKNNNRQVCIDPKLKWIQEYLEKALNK

GCP2 = target: T14, GCP2; assay: as above
T14 construct: also called GCP-2/CXCL6; CXCL6
T14 sequence (chemokine, as listed by the source): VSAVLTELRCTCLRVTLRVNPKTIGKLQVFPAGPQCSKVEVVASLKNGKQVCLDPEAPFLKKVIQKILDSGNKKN

Groβ = target: T15, Groβ; assay: as above
T15 construct: also called Gro-β/CXCL2; CXCL2
T15 sequence (chemokine, as listed by the source): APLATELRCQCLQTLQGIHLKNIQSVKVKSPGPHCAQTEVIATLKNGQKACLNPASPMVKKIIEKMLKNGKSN

PF4 = target: T7, PF4; assay: as above
CTACK = target: T8, CTACK; assay: as above

| ELISA signal (human MIP-1α/CCL3) | binding result (BCA1) | binding result (Groα) | binding result (NAP-2) | binding result (IL-8) | binding result (Groγ) | binding result (I-TAC) | binding result (BRAK) | binding result (ENA-78) | binding result (XCL1) | binding result (SDF) | binding result (GCP2) | binding result (Groβ) | binding result (PF4) | binding result (CTACK) | Binder |
| --- | --- | --- | --- | --- | --- | --- | --- | --- | --- | --- | --- | --- | --- | --- | --- |
| 1.47 |  |  |  |  |  |  |  |  |  |  |  |  |  |  | monoclonal antibody 7D12A (antibody, V domains shown, also called MAb 7D12A) VH: EVHLQESGPSLVKPSQTLSLTCSVTGDSITNGYWNWIRKFPGNKLDYMGYISYDGNTYYNPSLKSRFSITRDTSKNQYYLQLNSVTTEDTATYYCSRGDYGTYVMDYWGQGTSVTVSS VL: NIVLTQSPVSLAVSLGQRATISCRASESVDSHGNSFMHWYQQKPGQPPKLLIYLASNLESGVPARFTGGGSGSDFTLTIDPVEADDVGTYYCQQNNEDPYTFGGGTKLEIK |
|  | no binding (tested: 3 µg/mL) | no binding (tested: 3 µg/mL) | no binding (tested: 3 µg/mL) | no binding (tested: 3 µg/mL) | no binding (tested: 3 µg/mL) | no binding (tested: 3 µg/mL) | no binding (tested: 3 µg/mL) | no binding (tested: 3 µg/mL) | no binding (tested: 3 µg/mL) | no binding (tested: 3 µg/mL) | no binding (tested: 3 µg/mL) | no binding (tested: 3 µg/mL) | no binding (tested: 3 µg/mL) | no binding (tested: 3 µg/mL) | monoclonal antibody 18V4F (antibody, V domains shown, also called MAb 18V4F) VH: QVQLKESGPGLVAPSQSLSITCTVSGFSLTGYGIHWVRQPPGKGLEWLGVIWPGGGTNYNSALMSRLSISKDNSKSQVFLKMNSLQTDDTAMYYCARGPLITTEVSMDYWGQGTSVTVSS VL: QAVVTQESALTTSPGETVTLTCRSNTGAVTTSNYANWVQEKPDHLFTGLIGGTNNRAPGVPARFSGSLIGDKAALTITGAQTEDEAIYFCALWYSNHWVFGGGTKLTVLG |
